In patent US20200297842A1 (published 2020) one finds Kd and IC50 data, which are given here for eight molecules.

Assay [1] addresses T1, human SIRPγ expressed on cells (human, UniProt Q9P1W8 29-387).
T1 construct: Endogenous SIRPγ on Jurkat T-ALL cells and on human CD3+ T cells; also called SIRPγ expressing Jurkat cells; Human T Cells Expressing SIRPγ
The experiment in a line: flow cytometry on naive human CD3 T cells expressing SIRPγ. As for the experimental part: (§1) Human CD3 T cells, isolated from peripheral blood mononuclear cells (Astarte Biologics) were incubated in 96-well V-bottom plates at 2.5 \ 10⁵ cells/well for 1 h at 37° C., 5% CO₂ with serial dilutions of SIRP mAbs in binding buffer containing 1 mM EDTA (Sigma Aldrich), 1% FBS (Biowest) in PBS (Corning). The cells were then washed and stained for 45 min under the same conditions with donkey anti-mouse IgG fluorescein isothiocyanate (FITC)-linked secondary antibody (Jackson ImmunoResearch Laboratories). The cells were subsequently stained with anti-CD3 conjugated to 3-carboxy-6,8-difluoro-7-hydroxycoumarin (Pacific Blue) fluorophore (BioLegend) for 30 min on ice, washed and analyzed by flow cytometry (Attune, Life Technologies). Binding was assessed as the median FITC fluorescence intensity of CD3⁺ cells, subtracted from CD3⁺ cells stained with the secondary antibody only. All SIRP antibodies were generated in-house except for LSB2.20 (BioLegend). For activated T cells, prior to the binding assay CD3 T cells were activated for 72 h in a 96-well flat-bottom plate coated with 10 μg/ml anti-CD3 (clone UCHT1; BioLegend), at 1×10⁵ cells/well in the presence of 0.5 μg/ml anti-CD28 (clone CD28.2; BioLegend).
On the technique in general: Flow cytometry measures light scatter and fluorescence of single cells or particles in a stream.

The target in assay [2] is T1, human SIRPγ expressed on cells. The experiment in a line: flow cytometry on activated human CD3 T cells expressing SIRPγ. As for the experimental part:
as §1

Assay [3] has the same target. The experiment in a line: flow cytometry on naive human CD3 T cells expressing SIRPγ (second column). How it is done: as §1
Assay [4] deals with T2, Fc tagged human SIRPα (ACRO # SIG-H5251, genotype variant 1) (human, UniProt P78324 31-370, limits assumed).
T2 construct: Bought protein; also called Fc tagged human SIRP alpha; recombinant human SIRPα; not shown: Fc tag
The experiment in a line: ELISA, plate-coated Fc tagged human SIRPα; apparent Kd. How it is done: The binding of anti-SIRP monoclonal antibodies (mAbs) of the present disclosure to SIRP alpha (SIRPα) was determined by solid phase ELISA using an Fc tagged human SIRP alpha. Binding by soluble anti-SIRP antibodies was measured in vitro.
Fc tagged human SIRPα (ACRO # SIG-H5251, genotype variant 1) is adsorbed to high-binding microtiter plates at a concentration of 1 μg/ml diluted in phosphate buffered saline (PBS) overnight at 4° C. The coating solution is removed, the wells are washed and then blocked with 75% casein in PBS containing 0.5% Tween 20 (PBST) for 60 minutes at room temperature while shaking. Blocking solution is removed, the wells are washed and incubated for 60 minutes at room temperature while shaking with either murine or human anti-SIRP mAbs diluted in PBST at a starting concentration of 30 μg/ml and reducing the concentration in 3-fold serial dilutions. Wells are washed three times with PBST and incubated for 60 minutes at room temperature while shaking with an HRP-labeled donkey anti-mouse or anti-human secondary antibody (Jackson ImmunoResearch Laboratories) diluted 1:10,000 in PBST. The wells are washed and then incubated with peroxidase substrate and the absorbance at 450 nm measured. The apparent affinities were calculated using a non-linear fit model (GraphPad Prism).

Assay [5] addresses T3, Fc tagged human SIRPγ (ACRO # SIG-H5253) (human, UniProt Q9P1W8 29-360).
T3 construct: Bought protein; it includes the transmembrane and cytoplasmic part, which a soluble Fc fusion would not carry; also called Fc tagged human SIRP gamma; recombinant human SIRP gamma; not shown: Fc tag
Put plainly: ELISA, plate-coated Fc tagged human SIRPγ; apparent Kd. As for the experimental part: The binding of anti-SIRP antibodies of the present disclosure to SIRP gamma (SIRPγ) was determined by ELISA using an Fc tagged human SIRPγ. Binding by soluble anti-SIRP antibodies was measured in vitro.
Fc tagged human SIRPγ (ACRO # SIG-H5253) is adsorbed to high-binding microtiter plates at a concentration of 1 μg/ml in phosphate buffered saline (PBS) overnight at 4° C. The coating solution is removed, the wells are washed and then blocked with 75% casein in PBS containing 0.5% Tween 20 (PBST) for 60 minutes at room temperature while shaking. Blocking solution is removed, the wells are washed and incubated for 60 minutes at room temperature while shaking with anti-SIRP mAbs diluted in PBST at a starting concentration of 30 μg/ml and reducing the concentration in 3-fold serial dilutions. Wells are washed three times with PBST and incubated for 60 minutes at room temperature while shaking with an HRP labeled donkey anti-mouse or anti-human secondary antibody (Jackson ImmonResearch Laboratories) diluted 1:10,000 in PBST. The wells are washed and then incubated with peroxidase substrate and the absorbance at 450 nm determined. The apparent affinities were calculated using a non-linear fit model (GraphPad Prism).
(In an ELISA, binding on a coated surface is turned into a signal by an enzyme label.)

The target of assay [6] is T4, human SIRPα expressed on cells (human, UniProt P78324 31-504).
T4 construct: whole, on cells; Endogenous SIRPα of THP-1 cells and of donor-derived macrophages and dendritic cells; also called SIRPα expressing THP-1 cells; cell-expressed SIRPα on dendritic cells and/or macrophages
Put plainly: flow cytometry on human monocyte-derived dendritic cells; apparent Kd. As for the experimental part:
(§2) Human CD14⁺ monocytes, isolated from peripheral blood mononuclear cells (Astarte Biologics) were differentiated in vitro for seven days into macrophages or dendritic cells. For macrophage differentiation, monocytes were incubated in AIM-V media (Life Technologies) supplemented with 50 ng/ml M-CSF (Biolegend) for seven days. For dendritic cell differentiation, monocytes were incubated in AIM-V media (Life Technologies) in the presence of 10% human AB serum (Valley Biomedical), 200 ng/ml GM-CSF (Biolegend) and 50 ng/ml IL-4 (Biolegend). The cells were incubated for 1 h at 37° C., 5% CO₂ with serial dilutions of SIRP mAbs in binding buffer containing 1 mM EDTA (Sigma Aldrich) and 1% FBS (Biowest) in PBS (Corning). The cells were then washed and stained for 45 min under the same conditions with donkey anti-mouse IgG fluorescein isothiocyanate (FITC)-linked secondary antibody (Jackson ImmunoResearch Laboratories). The cells were subsequently stained with anti-CD14 or anti-CD11c conjugated to Alexa Fluor 647 fluorophore (Life Technologies and Biolegend, respectively) for 30 min on ice, washed and analyzed by flow cytometry (Attune, Life Technologies). Binding was assessed as the median FITC fluorescence intensity of CD14⁺ or CD11c⁺ cells, subtracted from cells stained with the secondary antibody only.

For assay [7], the target named is HIS tagged human SIRPα (ACRO # SIG-H5225) (human) (UniProt P78324). Put plainly: blocking ELISA: mAb on plate-coated HIS tagged human SIRPα, then Fc tagged human CD47.
Assay [8] deals with T3, Fc tagged human SIRPγ (ACRO # SIG-H5253). The experiment in a line: blocking ELISA: mAb with human SIRPγ (ACRO # SIG-H5253) on plate-coated HIS tagged human CD47. How it is done: HIS tagged human CD47 (ACRO # CD7-H5227) is adsorbed to high-binding microtiter plates at a concentration of 2 μg/ml diluted in PBS overnight at 4° C. The coating solution is removed, the wells are washed and then blocked with 75% casein in PBS containing 0.5% Tween 20 (PBST) for 60 minutes at room temperature while shaking. Blocking solution is removed, the wells are washed and incubated for 60 minutes at room temperature while shaking with anti-SIRP mAbs diluted in PBST at a starting concentration of 30 μg/ml and reducing the concentration in 3 fold serial dilutions and 0.5 μg/ml of human SIRPγ (ACRO # SIG-H5253). Wells are washed three times with PBST and incubated for 60 minutes at room temperature while shaking with an HRP labeled donkey anti-mouse or anti-human secondary antibody (Jackson ImmunoResearch Laboratories) diluted 1:20,000 in PBST. The wells are washed and then incubated with peroxidase substrate and the absorbance at 450 nm determined. The IC₅₀ was calculated using a non-linear fit model (GraphPad Prism).

Assay [9] addresses T4, human SIRPα expressed on cells. The experiment in a line: flow cytometry on human monocyte-derived macrophages; apparent Kd. As for the experimental part:
as §2

T4 sequence (P78324 31-504): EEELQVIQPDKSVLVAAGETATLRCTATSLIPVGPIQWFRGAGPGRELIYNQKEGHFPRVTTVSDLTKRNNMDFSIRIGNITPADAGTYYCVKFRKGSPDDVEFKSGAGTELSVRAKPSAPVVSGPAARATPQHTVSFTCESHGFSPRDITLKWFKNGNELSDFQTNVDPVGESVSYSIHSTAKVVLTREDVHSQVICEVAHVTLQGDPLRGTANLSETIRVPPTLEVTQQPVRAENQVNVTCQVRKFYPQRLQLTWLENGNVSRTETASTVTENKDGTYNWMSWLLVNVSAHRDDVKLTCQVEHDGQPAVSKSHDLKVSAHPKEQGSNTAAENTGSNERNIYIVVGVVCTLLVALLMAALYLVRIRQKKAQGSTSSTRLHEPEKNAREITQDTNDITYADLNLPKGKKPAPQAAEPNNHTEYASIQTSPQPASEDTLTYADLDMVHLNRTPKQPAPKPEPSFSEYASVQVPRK
T2 sequence (P78324 31-370 limits assumed, change not shown, form in doubt): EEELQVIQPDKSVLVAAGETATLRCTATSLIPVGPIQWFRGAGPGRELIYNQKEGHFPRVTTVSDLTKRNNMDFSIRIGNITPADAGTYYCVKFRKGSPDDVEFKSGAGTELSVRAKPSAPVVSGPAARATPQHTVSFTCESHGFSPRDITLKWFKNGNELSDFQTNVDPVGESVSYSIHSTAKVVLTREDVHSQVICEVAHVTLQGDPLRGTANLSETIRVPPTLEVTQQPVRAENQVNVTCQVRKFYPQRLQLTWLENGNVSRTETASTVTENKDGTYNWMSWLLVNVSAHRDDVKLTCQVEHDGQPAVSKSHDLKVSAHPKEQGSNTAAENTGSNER
HIS tagged human SIRPα (ACRO # SIG-H5225) (human), sequence (P78324 31-370): as the sequence (P78324 31-370 limits assumed, change not shown, form in doubt) above
T3 sequence (Q9P1W8 29-360 limits assumed): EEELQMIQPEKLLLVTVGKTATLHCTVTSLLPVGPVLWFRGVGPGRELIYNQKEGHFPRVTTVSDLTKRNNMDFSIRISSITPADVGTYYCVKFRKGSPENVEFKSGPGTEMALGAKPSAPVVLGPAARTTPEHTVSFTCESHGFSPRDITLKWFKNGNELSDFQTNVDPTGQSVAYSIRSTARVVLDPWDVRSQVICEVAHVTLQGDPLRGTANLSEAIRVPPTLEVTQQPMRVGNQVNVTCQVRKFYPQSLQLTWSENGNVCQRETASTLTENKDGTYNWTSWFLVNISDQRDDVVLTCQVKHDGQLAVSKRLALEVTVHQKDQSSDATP
T1 sequence (Q9P1W8 29-387): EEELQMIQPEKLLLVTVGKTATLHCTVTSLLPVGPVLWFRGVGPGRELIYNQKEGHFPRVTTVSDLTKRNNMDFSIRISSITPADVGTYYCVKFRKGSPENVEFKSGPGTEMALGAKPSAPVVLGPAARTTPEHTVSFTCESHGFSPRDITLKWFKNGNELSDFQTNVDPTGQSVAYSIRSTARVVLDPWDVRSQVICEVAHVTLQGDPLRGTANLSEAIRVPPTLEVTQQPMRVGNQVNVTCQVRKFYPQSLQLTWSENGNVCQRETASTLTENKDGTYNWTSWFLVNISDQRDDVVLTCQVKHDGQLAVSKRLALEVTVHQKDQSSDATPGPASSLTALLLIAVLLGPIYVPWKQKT

Turning to LSB2.20 (antibody), the Kd in assay [1] was determined as 0.75 nM; in assay [2], 0.95 nM; in assay [3] it was 1.26 nM.

B1: SIRP3 (antibody, mouse IgG1, kappa, V domains shown)
VH: EVQLQQSGPEVVKPGASVKMSCKASGYTFTSYVMHWVKQKPGQGLEWIGYINPYNDGPKYNEKFKGKATLTSDKSSSTAYMELSSLTSEDSAVYFCARWDYFNSASGFAFWGQGTLVTVSA
VL: EIVLTQSPTTMAASPGEKITIICSASSIIGSDFLHWYQQRPGFSPKFLIYRTSILASGVPTRFTGSGSGTSYSLTIGTMEAEDVATYYCQQGSGLPLTFGSGTKLEMKR
notes: Hybridoma-derived mouse mAb
The IC50 is the concentration at which inhibition is half-maximal. A low value points to greater potency in that assay. In the case of B1, the Kd in assay [4] amounted to 0.289 nM; in [5] it was 0.17 nM; in assay [1], 0.0807 nM; in assay [6], 0.00347 nM. The IC50 in assay [7] worked out at 2.7 nM; in [8], 0.96 nM.

B2: SIRP4 (antibody, V domains shown)
VH: EVQLQQSGPDLVKPGASVKISCKASGYSFTDYFLNWVKQSHGKSLEWIGRINPYNGDSFINQNFRDKATLTVDKSSTTAHMDLLSLTSEDSAIYYCGRGGYDGYFIAYFDYWGQGSLVTVSA
VL: DIKLTQSQSSMYSSLGQRVTITCKASQDINSHLSWFQEKPGKSPKTLIYRANRLADGVPSRFSGSGSGQDYFLTISSLEYEDVGIYYCLQYDEFPYTFGGGTKLEIK
notes: detected with anti-mouse secondary antibody in the cell assays
In the case of B2, the Kd in assay [4] came to 0.161 nM; in assay [5], 0.274 nM; in assay [9] it was 0.0207 nM; in assay [6] it was 0.05 nM. The IC50 in [7] came out at 0.71 nM; in [8], 0.44 nM.

B3: KWAR-23 (antibody, V domains shown)
VH: EVQLQQSGAELVKPGASVKLSCTASGFNIKDYYIHWVQQRTEQGLEWIGRIDPEDGETKYAPKFQDKATITADTSSNTAYLHLSSLTSEDTAVYYCARWGAYWGQGTLVTVSS
VL: QIVLTQSPAIMSASPGEKVTLTCSASSSVSSSYLYWYQQKPGSSPKLWIYSTSNLASGVPARFSGSGSGTSYSLTISSMEAEDAASYFCHQWSSYPRTFGAGTKLELK
As to B3, the Kd came out at 0.00404 nM in assay [1], 0.00622 nM in assay [2], 0.0234 nM in [6] and 0.00159 nM in assay [3].

B4: SIRP5 (antibody, V domains shown)
VH: QVQLQQSAAELARPGASVKMSCKASGYTFTSYTMHWVKQRPGQGLEWIGYINPTIGYTEYNQKFKDKTTLTADKSSSTAYMQLSSLTSEDSAVYYCVRLVITSVLGRAMDYWGQGTSVTVSS
VL: QIVLTQSPALMSASPGEKVTMTCSASSSVSYMYWFQQKPRSSPKPWIYLTSNLASGVPARFSGSGSGTSYSLTISSMEAEDAATYYCQQWSGNPFTFGSGTKLEIK
B4: the Kd in [4] came out at 0.065 nM; in [5] it was 0.126 nM; in assay [6], 0.77 nM. The same molecule had an IC50 in assay [8] of 0.163 nM.

B5: SIRP7 (antibody, V domains shown)
VH: EVQLQQSGPELVKPGASVKMSCRASGYTFSTYVMHWIKHRPGQGLEWIGYINPNNDGPNYNEKFKGKATLTSDISSSTAYMELSSLTSEDSAVYFCSRWDSYNSAAGFAYWGHGTLVTVSA
VL: EIVLTQSPTTMAASPGEKITIICSASSSISSNFLHWYQQKPGFSPRFLIYRTSILASGVPTRFSGSGSGTSYSLTIDTMEAEDVATYYCQQGSGLPLTFGSGTKLEIK
On to B5, for which the results for the Kd in assay [4], in [5] and in assay [1] were 0.197 nM, 0.099 nM and 0.0839 nM, respectively. Moreover, the IC50 in assay [7] was determined as 1.1 nM; in assay [8], 0.63 nM.

B6: SIRP2 (antibody, mouse IgG1, kappa, V domains shown)
VH: EVKLVESGGGLVQPGGSLKLSCAASGFSFSGCTMSWIRQTPERRLEWVAYISNGGDITYYPDTVKGRFTISRDNAKNSLYLQMSSLKSEDTAMYYCARLDGYYYAMDFWGQGTSVTVSS
VL: DILLTQSPAILSVSPGERVSFSCRASQSIGTSIHWYQQRTNGSPRLLIKYGSESISGIPSRFSGSGSGTDFTLSINSVESEDIADYYCQQSNTWPLTFGDGTKLELKR
notes: Hybridoma-derived mouse mAb
As for B6, the Kd in [4] was determined as 0.182 nM; in [5], 0.734 nM. Also, the values for the IC50 in assay [7] and in assay [8] were 3 nM and 3.5 nM, respectively.

B7: OSE-18D5 (antibody, from another filing, V domains shown)
VH: QVQLQQPGAELVRPGSSVKLSCKASGYTFTSYWVHWVKQRPIQGLEWIGNIDPSDSDTHYNQKFKDKASLTVDKSSSTAYMQLSSLTFEDSAVYYCVRGGTGTMAWFAYWGQGTLVTVSA
VL: DVVMTQTPLSLPVSLGDQASISCRSSQSLVHSYGNTYLYWYLQKPGQSPKLLIYRVSNRFSGVPDRFSGSGSGTDFTLKISRVEAEDLGVYFCFQGTHVPYTFGSGTKLEIK
In the case of B7, the Kd in assay [1] came to 8.41 nM; in [9], 0.0373 nM; in [6] it was 0.0412 nM.
